The target of assay [1] is RSV A Randall fusion glycoprotein (F) (RSV A, strain Randall). Briefly: cell-based or functional assay.
The target in assay [2] is RSV B 9719/09 fusion glycoprotein (F) (RSV B, strain 9719/09). Briefly: cell-based or functional assay.
The target in assay [3] is RSV A fusion glycoprotein (F), virus of the neutralisation assays of Tables 54 and 57 (RSV A). Briefly: cell-based or functional assay.
Assay [4] addresses RSV F A G446E (RSV A, strain A2) (UniProt P03420). As to the kind of experiment: FACS, % binding to RSV F A variants. On the technique in general: A flow cytometer gives signals particle by particle.
Assay [5] has as its target RSV F A L203I (RSV A, strain A2) (UniProt P03420). Briefly: FACS, % binding to RSV F A variants.
In assay [6] the target is RSV F A N208Y-N671I (RSV A, strain A2) (UniProt P03420). Briefly: FACS, % binding to RSV F A variants.
In assay [7] the target is RSV F A S433P (RSV A, strain A2) (UniProt P03420). As to the kind of experiment: FACS, % binding to RSV F A variants.
Assay [8] addresses RSV F A S433P-G446E (RSV A, strain A2) (UniProt P03420). As to the kind of experiment: FACS, % binding to RSV F A variants.
Assay [9] concerns the target RSV F A S443P-K445N (RSV A, strain A2) (UniProt P03420). As to the kind of experiment: FACS, % binding to RSV F A variants.
The target in assay [10] is RSV F A, A2 Ref (RSV A, strain A2) (UniProt P03420). As to the kind of experiment: FACS, % binding to RSV F A variants.
Assay [11] deals with RSV F B K68N-N201S (RSV B). Briefly: FACS, % binding to RSV F B variants.
Assay [12] has as its target RSV F B K68N-N208S (RSV B). Briefly: FACS, % binding to RSV F B variants.
The target of another assay is RSV F B N201S (RSV B). As to the kind of experiment: FACS, % binding to RSV F B variants.
In a further assay the target is RSV F B N208D (RSV B). As to the kind of experiment: FACS, % binding to RSV F B variants.
A further assay addresses RSV F B N208S (RSV B). As to the kind of experiment: FACS, % binding to RSV F B variants.
The target in the next assay is RSV F B S443P (RSV B). Briefly: FACS, % binding to RSV F B variants.
Another assay addresses RSV F B, B Ref (RSV B). As to the kind of experiment: FACS, % binding to RSV F B variants.
Assay [13] concerns the target fusion glycoprotein of RSV A2 BPR-344-00 (BEI NR-12149) (respiratory syncytial virus A2) (UniProt P03420). Briefly: cell-based or functional assay.
Assay [14] addresses fusion glycoprotein of RSV B1 BPR-348-00 (BEI NR-4052) (respiratory syncytial virus B1) (UniProt O36634). Briefly: cell-based or functional assay.
The target of assay [15] is fusion glycoprotein of the RSV used in the neutralization assay of Example 1 (respiratory syncytial virus (strain not stated)). As to the kind of experiment: cell-based or functional assay.
The target in assay [16] is RSV fusion glycoprotein (RSV-F) (respiratory syncytial virus (strain not stated)). As to the kind of experiment: SPR; sensors loaded with RSV-F, mAb in solution (Experiment 2).
Assay [17] deals with MPV fusion glycoprotein with the D280N mutation (MPV-F N280) (metapneumovirus). Briefly: SPR; F protein loaded on streptavidin sensors, mAb in solution. (In general: In SPR one partner is held on a chip, and binding of the other changes the refractive index at the surface.)
Assay [18] deals with MPV fusion glycoprotein without the D280N mutation (MPV-F D280) (metapneumovirus). The description is as above.
Assay [19] concerns the target RSV fusion glycoprotein (RSV-F) (respiratory syncytial virus). The description is as above.
Assay [20] concerns the target RSV fusion glycoprotein (RSV-F) of the RSV used in the neutralization of Table 33 (respiratory syncytial virus, strain not stated). As to the kind of experiment: cell-based or functional assay.
The target of assay [21] is fusion glycoprotein (F) of the MPV used in the neutralization of Table 34 (metapneumovirus). As to the kind of experiment: cell-based or functional assay.
In assay [22] the target is MPV fusion glycoprotein (MPV-F) of MPV-A2 (CAN97-83) (human metapneumovirus, strain CAN97-83) (UniProt Q6WB98). Briefly: cell-based or functional assay.
In assay [23] the target is MPV fusion glycoprotein (MPV-F) of MPV-B2 (TN/96-213) (human metapneumovirus, strain TN/96-213). Briefly: cell-based or functional assay.
Assay [24] deals with RSV fusion glycoprotein (RSV-F) of RSV-A (A2) (respiratory syncytial virus A, strain A2) (UniProt P03420). Briefly: cell-based or functional assay.
Assay [25] addresses RSV fusion glycoprotein (RSV-F) of RSV-B (B1) (respiratory syncytial virus B, strain B1) (UniProt O36634). As to the kind of experiment: cell-based or functional assay.
In assay [26] the target is RSV-B B9320 F protein (RSV B, strain B9320). As to the kind of experiment: cell-based or functional assay.
Assay [27] addresses fusion glycoprotein (F) of RSV A/A2/61 (respiratory syncytial virus A/A2/61) (UniProt P03420). As to the kind of experiment: cell-based or functional assay.
The target of assay [28] is fusion glycoprotein (F) of RSV B/9727 (respiratory syncytial virus B/9727). As to the kind of experiment: cell-based or functional assay.
Assay [29] addresses fusion glycoprotein of Human Metapneumovirus-GFP CAN97-83 (Vira Tree M121) (human metapneumovirus CAN97-83) (UniProt Q6WB98). As to the kind of experiment: cell-based or functional assay.
In assay [30] the target is fusion glycoprotein of Human metapneumovirus-TN/96-213 (BEI NR-22243) (human metapneumovirus TN/96-213). Briefly: cell-based or functional assay.
The target in assay [31] is fusion glycoprotein of the MPV D280 used in the neutralization assay of Example 3 (metapneumovirus (strain not stated)). As to the kind of experiment: cell-based or functional assay.
Assay [32] concerns the target RSV fusion glycoprotein (RSV-F), pre-fusion conformation, recombinant protein loaded on sensors (respiratory syncytial virus (RSV), strain not stated). Briefly: ELISA-type titration, OD 405 nm, on Pre-F. (ELISA stands for enzyme-linked immunosorbent assay.)
Assay [33] has as its target RSV fusion glycoprotein (RSV-F) (respiratory syncytial virus (strain not stated)). Briefly: SPR; sensors loaded with F protein, mAb in solution.

Chain of MPE8 (antibody) (VH): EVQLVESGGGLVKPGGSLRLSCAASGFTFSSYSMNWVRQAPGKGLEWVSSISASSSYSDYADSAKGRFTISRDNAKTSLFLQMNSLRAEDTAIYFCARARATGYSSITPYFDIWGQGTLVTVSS
Chain of MPE8 (antibody) (VL): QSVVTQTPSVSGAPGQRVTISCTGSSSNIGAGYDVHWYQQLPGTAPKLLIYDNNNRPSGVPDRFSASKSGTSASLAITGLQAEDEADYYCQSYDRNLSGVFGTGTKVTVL
Chain of palivizumab (antibody) (VH): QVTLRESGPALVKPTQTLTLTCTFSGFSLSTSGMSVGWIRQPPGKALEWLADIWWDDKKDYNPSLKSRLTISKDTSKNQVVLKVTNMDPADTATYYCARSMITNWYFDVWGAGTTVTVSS
Chain of palivizumab (antibody) (VL): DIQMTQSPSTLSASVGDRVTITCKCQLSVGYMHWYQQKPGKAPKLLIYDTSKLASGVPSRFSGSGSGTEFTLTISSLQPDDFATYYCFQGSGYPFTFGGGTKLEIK

Regarding Palivizumab (antibody), the IC50, virus neutralization stood at 0.122 µg/mL in assay [1] and 0.0786 µg/mL in [2].
In [3], MK-1654-rIgG1m17,1-YTE (antibody) gave an IC50, neutralization of RSVA of 0.00461 µg/mL. The % binding in assay [4] came to 0.049%; in assay [5], 62.6%; in [6], 43.1%; in assay [7] it was 7.14%; in [8] it was 1.04%; in assay [9], 0.11%. For the same substance, the % binding in [10] is 83.7%; in assay [11], 66.7%; in assay [12] it was 65.7%; with RSV F B N201S (RSV B) it was 64.7%; with RSV F B N208D (RSV B), 63.1%; with RSV F B N208S (RSV B), 64.3%. In addition, the % binding with RSV F B S443P (RSV B) is 22.6%; with RSV F B, B Ref (RSV B), 63.4%.
Take MEDI8897 (antibody): the RSV Neutralization by MPK44 and MPK65-v2 - IC50 in assay [13] was 0.0002 µg/mL; in assay [14], 0.0004 µg/mL. Also, the RSV and MPV Neutralization (IC50 ng/ml) in assay [13] was found to be 0.208 ng/mL; in assay [14], 0.447 ng/mL. Further, the RSV Neutralization - IC50 in assay [15] was 0.0008 µg/mL. The Kd (usually the concentration at which binding is half-saturated) in assay [16] was 0.001 nM; in assay [17] it was 100 nM; in assay [18], 100 nM; in assay [19], 0.001 nM.
The substance palivizumab-rIgG1 (antibody) came in with an IC50 (ng/mL) in neutralization against RSV in assay [20] of 55.2 ng/mL. Moreover, the IC50 (ng/mL) in neutralization against MPV in assay [21] is greater than 2000 ng/mL.
Regarding D25-rIgG1 (antibody), in assay [20], the IC50 (ng/mL) in neutralization against RSV came to 0.929 ng/mL. For the same substance, in [21], the IC50 (ng/mL) in neutralization against MPV was greater than 2000 ng/mL.
Take MPE8 (antibody): the Neutralization (IC50, ng/ml) in assay [22] stood at 12.6 ng/mL; in [23] it was 23.6 ng/mL; in [24], 6 ng/mL; in assay [25], 3.7 ng/mL. In assay [1], this substance showed an RSV IC50 (ng/ml), neutralization of A/Randall of 22 ng/mL. The IC50 (ng/mL) in neutralization against RSV in assay [20] was 12.2 ng/mL. In assay [26], this substance had an RSV IC50 (ng/ml), neutralization of B/9320 of 3.2 ng/mL. This substance also displayed an RSV IC50 (ng/ml), neutralization of A/A2 in [27] of 126 ng/mL. The RSV IC50 (ng/ml), neutralization of B/9727 in [28] turned out to be 16.9 ng/mL. Further, the IC50 (ng/mL) in neutralization against MPV in [21] is 11 ng/mL. In addition, the RSV and MPV Neutralization (IC50 ng/ml) was determined as 12.6 ng/mL in assay [29], 23.6 ng/mL in [30], 6.01 ng/mL in assay [13] and 3.71 ng/mL in assay [14]. Further, in assay [31], the MPV D280 Neutralization - IC50 turned out to be 0.0069 µg/mL. For the same substance, in [15], the RSV Neutralization - IC50 came out at 0.0153 µg/mL. The EC50 (read off the curve) (commonly the concentration giving half of the maximal effect) in assay [32] was 0.03 µg/mL. Further, the Kd is 0.001 nM in assay [33], 100 nM in assay [17], 2.5 nM in assay [18] and 0.001 nM in assay [19].
In turn, palivizumab (antibody) gave an RSV Neutralization - IC50 in assay [15] of 0.156 µg/mL. The Kd in [16] and in assay [19] was 2.6 nM throughout.
For the substance “MEDI8897-rIgG1-YTE (nirsevimab) (antibody)”, the Neutralization (IC50, ng/ml) in [24] came out at 0.2 ng/mL; in [25], 0.4 ng/mL. Also, in assay [20], the IC50 (ng/mL) in neutralization against RSV is 0.549 ng/mL. For the same substance, the IC50 (ng/mL) in neutralization against MPV in assay [21] was greater than 2000 ng/mL.

Source of the values: patent US20260028391A1.
